Results reported in article PMC11239674.
Substitutions are numbered along the chain they refer to.

Key:
Experiment in all cases: MST
Conditions in all cases: 25 mM Tris-HCl pH 8.0, 150 mM NaCl (150 mM LiCl for Sc1 LiCl), 1 mM DTT, 0.1 mg/ml BSA; 20 nM Cy5-RNA; about 2 min incubation; temperature not stated; low values mean tight binding
[1] = target: T1, AtBnGRP7 (Arabidopsis thaliana / Brassica napus chimera) (UniProt Q03250)
T1 sequence: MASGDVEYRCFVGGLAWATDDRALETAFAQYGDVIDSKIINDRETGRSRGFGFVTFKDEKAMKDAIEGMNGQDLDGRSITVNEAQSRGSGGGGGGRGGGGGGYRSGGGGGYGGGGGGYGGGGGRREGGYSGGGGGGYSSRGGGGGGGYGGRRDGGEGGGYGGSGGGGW

[2] = target: T2, AtGRP7 (Arabidopsis thaliana) (UniProt Q03250)
T2 sequence: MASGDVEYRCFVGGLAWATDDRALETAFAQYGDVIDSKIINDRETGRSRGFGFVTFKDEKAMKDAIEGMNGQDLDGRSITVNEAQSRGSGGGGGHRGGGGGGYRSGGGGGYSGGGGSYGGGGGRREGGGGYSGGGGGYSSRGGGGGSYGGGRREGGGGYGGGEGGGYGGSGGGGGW

[3] = target: T3, AtGRP7StoE S132E;S139E (Arabidopsis thaliana) (UniProt Q03250)
T3 sequence: T2 sequence with S132E, S139E

[4] = target: T4, AtGRP7StoG S132G;S139G (Arabidopsis thaliana) (UniProt Q03250)
T4 sequence: T2 sequence with S132G, S139G

[5] = target: T5, AtGRP7YtoE Y103E;Y111E;Y118E;Y131E;Y138E;Y148E;Y159E;Y167E (Arabidopsis thaliana) (UniProt Q03250)
T5 sequence: T2 sequence with Y103E, Y111E, Y118E, Y131E, Y138E, Y148E, Y159E, Y167E

[6] = target: T6, AtGRP7YtoG Y103G;Y111G;Y118G;Y131G;Y138G;Y148G;Y159G;Y167G (Arabidopsis thaliana) (UniProt Q03250)
T6 sequence: T2 sequence with Y103G, Y111G, Y118G, Y131G, Y138G, Y148G, Y159G, Y167G

BnGRP7 (Brassica napus) = target: T7, BnGRP7 (Brassica napus) (UniProt A0A078J5Z4)
T7 sequence: T1 sequence with G4P, A29S, Y31F, I35L, A61S

[7] = target: T8, AtGRP7short (Arabidopsis thaliana) (UniProt Q03250)
T8 sequence: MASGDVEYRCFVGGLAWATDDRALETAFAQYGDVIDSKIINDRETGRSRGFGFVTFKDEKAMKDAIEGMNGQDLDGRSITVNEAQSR

| Substance | Kd [1] | Kd [2] | Kd [3] | Kd [4] | Kd [5] | Kd [6] | Kd (BnGRP7 (Brassica napus)) | Kd [7] |
| --- | --- | --- | --- | --- | --- | --- | --- | --- |
| AtCOR15A | 741 nM | 224 nM | 738 nM | 2230 nM | 23400 nM | 3750 nM | 323 nM | – |
| GGAUGGCGAUGUCUUUCUCAGGAGCUGUUCUCACUGGUAUGGCUUCUUCUUUCCACAGCGGAGCCAAGCAGAGCAGCUUCGGCGCUGUCAGAGUCGGCCAGAAAACUCAGUUCGUCGUCGUUUCUCAACGCAAGAAGUCGUUGAUCUACGCCGCUAAAGGUGACGGCAACAUCCUCGAUGACCUCAACGAGGCCACAAAGAAAGCUUCAGAUUUCGUGACGGAUAAAACAAAAGAGGCAUUAGCAGAUGGUGAGAAAGCGAAAGACUACGUUGUUGAAAAAAACAGUGAAACCGCAGAUACAUUGGGUAAAGAAGCUGAGAAAGCUGCGGCGUAUGUGGAGGAGAAAGGAAAAGAAGCCGCAAACAAGGCGGCAGAGUUCGCGGAGGGUAAAGCAGGAGAGGCUAAGGAUGCCACAAAGUAG [AtCOR15A] | 548 nM | 62 nM | 2470 nM | 2300 nM | – | 2700 nM | 153 nM | – |
| GGAUGUCUGAAGUUGAGUACCGGUGCUUUGUCGGCGGCCUUGCCUGGGCCACCAAUGAUGAAGAUCUUCAAAGGACGUUCUCACAGUUCGGCGACGUUAUCGAUUCUAAGAUCAUUAACGACCGCGAGAGUGGAAGAUCAAGGGGAUUCGGAUUCGUCACCUUCAAGGACGAGAAAGCCAUGAGGGAUGCGAUUGAAGAGAUGAACGGUAAAGAGCUCGAUGGACGUGUCAUCACCGUGAACGAGGCUCAGUCGAGAGGUAGCGGCGGUGGCGGAGGAGGCCGUGGUGGAAGCGGUGGUGGUUACCGCAGCGGAGGCGGUGGUGGAUACUCAGGAGGCGGUGGCGGCGGAUACUCAGGAGGAGGCGGUGGUGGUUACGAGAGACGUAGCGGAGGUUACGGAUCUGGUGGAGGCGGUGGUGGCCGAGGAUACGGUGGUGGUGGACGCCGUGAGGGAGGUGGCUACGGAGGCGGUGAUGGUGGAAGUUACGGAGGCGGUGGUGGCGGCUGGUAA [AtGRP8] | 135 nM | 177 nM | 937 nM | 493 nM | 2790 nM | 381 nM | 9160 nM | – |
| GGAUUUGCGCAUUAAACCAAAAAGUGUCACGUGAUAUGUCCCCAACCACUACGAAUUUUAACUACAGAUUUAACCAUGGUUAAACCAGAAUUCACGUAAACCGACUCUAAACCUAGAAAAUAUCUAAACCUUGGUUAAUAUCUCAGCCCCCUUAUAAAUAACGAGACUUCGUCUACAUCGUUCUACACAUCUCACUGCUCACUACUCUCACUGUAAUCCCUUAGAUCUUCUUUUCAAAUUUCAAUGGCGUCCGGUGAUGUUGAGUAUCGGUGCUUCGUUGGAGGUCUAGCAUGGGCCACUGAUGACAGAGCUCUUGAGACUGCCUUCGCUCAAUACGGCGACGUUAUUGAUUCCAAGGUCUGUUACACGCCGAGAUCGGACUCCGAGUGAUAUCGAUGAUCUCAUCCUCGACGGAUCUGUUCCGAUCUUGUGUUUCUCUGUUACUUGAUUCGAUUACUCUGUUACUAUUCUCGUUCUUUGUUACUACUACUACUACUACUGUUACUUGUAUUUUCCCAAAUCGGUACGUUCAUCUUCCUGCUUCUGUGAGCCCGGAGAUCGAUCGGAUUUUUUUGUAUUUUGUAUAUUUGUUGUAGAUCUAAAUGCUUUUGUUCAGUUUUGUUGGAUUGUUUUGCUGAUCUGGUUUUUGUAUUAUUUGGAUAACAGAUCAUUAACGAUCGUGAGACUGGAAGAUCAAGGGGAUUCGGAUUCGUCACCUUCAAGGAUGAGAAAGCCAUGAAGGAUGCGAUUGAGGGAAUGAACGGACAAGAUCUCGAUGGCCGUAGCAUCACUGUUAACGAGGCUCAGUCACGAGGAAGCGGUGGCGGCGGAGGCCACCGUGGAGGUGGUGGCGGUGGAUACCGCAGCGGCGGUGGUGGAGGUUACUCCGGUGGAGGUGGUAGCUACGGAGGUGGCGGCGGUAGACGCGAGGGUGGAGGAGGAUACAGCGGCGGCGGCGGCGGUUACUCCUCAAGAGGUGGUGGUGGCGGAAGCUACGGUGGUGGAAGACGUGAGGGAGGAGGAGGAUACGGUGGUGGUGAAGGAGGAGGUUACGGAGGAAGCGGUGGUGGUGGAGGAUGGUAAUUCCUUUAAUUAGGUUUGGGAUUACCAAUGAAUGUUCUCUCUCUCGCUUGUUAUGCUUCUACUUGGUUUUGUGUGUUCUCUAUUUUGUUCUGGUUCUGCUUUAGAUUUGAUGUAACAGUUCGUGAUUAGGUAUUUUGGUAUCUGGAAACGUAAUGUUAAGUCACUUGUCAUUCUCUAAAUAACAAAUUUCUUCGGAGAUAUUAUCUCUGUUGAUUGAUUCUAUCAUCUAAAUUUCGGAAAUGCUAAUCGGAUACCGGAAUGGUGCCUUUGUUACGAUUGAGUUACUUACAUCACUGAUACAACAAUGAAGUACUUACUGAUUAUCUUUAUACCAUUCACCACACUACCUUUGAUAUUCAACAAUGAAGUAGAAACCUAUUUGGUUCAUUCGCA [AtGRP7] | 172 nM | 364 nM | 1790 nM | 606 nM | 21300 nM | 19300 nM | 16200 nM | – |
| GGCUCGAAACGAGGAGAAAAAAUCAUUAGUUAUCGAAAAUGCUCACAUGAUGUGGGCCUAACCACUAACCCAAUUAACCACACAUCUUAAUCAGAGUAAGUUGAAACAAAUCUUUCAGCAAACCCUAGAAAACAUGUUUAACCCUAGUUAUUACGUCACACCUGUUCUAUAAAUUAAGGCUGCGUCUUAUCACCUCAAAUCACAUAAGUCUCUCUCUUACAUUUUGAAACCCUAAUUUCUCUUCUUUUCCCCAAAAAAAAAUGUCUGAAGUUGAGUACCGGUGCUUUGUCGGCGGCCUUGCCUGGGCCACCAAUGAUGAAGAUCUUCAAAGGACGUUCUCACAGUUCGGCGACGUUAUCGAUUCUAAGGUCUGUUACACGAGAGAUCGGUCUCCCGGAUCGAGCCGAUUCCGAUGAUUCUGAUCCUCGACGGAUCUGAUUCCGAUCUGUUUCUCUGUUACUUGAUUCGAUUACUGUUACUAUGUUCUCUCUCGUUCUUUGUUACUGUUACUUAAUUUGUCCCAUCGGUACGUUCAUCUUCCUGCUUCUAUGAGCUCGGAGAUCGAUCGAUUUUUGCUUUAUAUUCAUCGCUUUGUUUUAUAUUCCUUCCACGAUUGUUUUUGCUGAUGUGUAUGAUUUUGUUUGUUUACAGAUCAUUAACGACCGCGAGAGUGGAAGAUCAAGGGGAUUCGGAUUCGUCACCUUCAAGGACGAGAAAGCCAUGAGGGAUGCGAUUGAAGAGAUGAACGGUAAAGAGCUCGAUGGACGUGUCAUCACCGUGAACGAGGCUCAGUCGAGAGGUAGCGGCGGUGGCGGAGGAGGCCGUGGUGGAAGCGGUGGUGGUUACCGCAGCGGAGGCGGUGGUGGAUACUCAGGAGGCGGUGGCGGCGGAUACUCAGGAGGAGGCGGUGGUGGUUACGAGAGACGUAGCGGAGGUUACGGAUCUGGUGGAGGCGGUGGUGGCCGAGGAUACGGUGGUGGUGGACGCCGUGAGGGAGGUGGCUACGGAGGCGGUGAUGGUGGAAGUUACGGAGGCGGUGGUGGCGGCUGGUAAUCAAAGAUAGAGUUGUUUGCGUGCUGCUGCUCUGUUUUUGGUUUAGAUUUGGUUUUGUGUCACCACUUCUGGUUUGGUUAUCGUUCGUUUGGUUUACUUUUUUGAUGAAACAGUUUCGUUUAAGUCUUCUUUGUCUGGAACGAAAUGUUAAUUCGCGUGUUGUUUACUAAAUUUAUAACGUUUCCUUUUAACCAGAUUCGAGAUUUUCCCUCAAAUAAUUUAUCUUGUUAGACACAUGUAUUUAAUCGAACAGCAGCUAAAGGAUUCAAAUGAUUUUCUUAUCAAUAAUUACUAUAGUUUGAAAUUGAUUAGUUCUUUAACUUUUGACCUACCAAUA [AtGRP8] | 312 nM | 156 nM | 923 nM | 1370 nM | – | 3390 nM | 502 nM | – |
| UCUUGUUCUGGUUUGGUUUUGAAC [Bn-miRnovel2] | 35 nM | 260 nM | 29 nM | 22 nM | 267 nM | 41 nM | 5.8 nM | 4490 nM |
| UGGAGAAGCAGGGCACGUGCA [miR164] | – | 42 nM | – | – | – | – | 21 nM | 5930 nM |
